Paper PMC8239462 (2021)

B1: RAP (commercial; R&D, 4296-LR) (natural protein)
chain: YSREKNQPKPSPKRESGEEFRMEKLNQLWEKAQRLHLPPVRLAELHADLKIQERDELAWKKLKLDGLDEDGEKEARLIRNLNVILAKYGLDGKKDARQVTSNSLSGTQEDGLDDPRLEKLWHKAKTSGKFSGEELDKLWREFLHHKEKVHEYNVLLETLSRTEEIHENVISPSDLSDIKGSVLHSRHTELKEKLRSINQGLDRLRRVSHQGYSTEAEFEEPRVIDLWDLAQSANLTDKELEAFREELKHFEAKIEKHNHYQKQLEIAHEKLRHAESVGDGERVSRSREKHALLEGRTKELGYTVKKHLQDLSGRISRARHNEL
modifications: Limits by convention: cluster IV = CR.21-31 (LDL-receptor class A repeats 21-31); vendor limits are not printed. Likely supplied as an Fc chimera, as for commercial cluster II (Fc omitted; may be a dimer). Ca2+-bound, three disulfides per CR.
B2: RAP (commercial; R&D, 4296-LR) (natural protein)
chain: B1 chain

What was measured:
[1] = molecular target: LRP1 Cluster IV (commercial) (Homo sapiens); assay: SPR
Sequence of LRP1 Cluster IV (commercial) (Homo sapiens) (chain, as listed by the source): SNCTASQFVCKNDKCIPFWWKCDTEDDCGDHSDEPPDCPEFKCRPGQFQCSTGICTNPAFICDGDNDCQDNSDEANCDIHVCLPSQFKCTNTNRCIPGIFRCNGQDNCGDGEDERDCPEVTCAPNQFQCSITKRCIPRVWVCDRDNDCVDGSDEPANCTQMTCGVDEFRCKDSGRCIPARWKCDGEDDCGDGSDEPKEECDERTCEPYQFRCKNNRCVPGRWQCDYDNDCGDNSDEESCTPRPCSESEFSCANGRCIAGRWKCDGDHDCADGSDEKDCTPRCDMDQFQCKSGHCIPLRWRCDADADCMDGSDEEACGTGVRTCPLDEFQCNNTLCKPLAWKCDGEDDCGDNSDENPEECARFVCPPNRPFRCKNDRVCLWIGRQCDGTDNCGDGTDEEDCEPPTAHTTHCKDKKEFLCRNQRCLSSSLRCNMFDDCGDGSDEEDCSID

[2] = molecular target: T1, vLDLR CR cluster (8 CRs), recombinant, secreted from Sf9 cells (human, UniProt P98155 28-355); assay: SPR; vLDLR cluster expressed with RAP (RAP+)
[3] = molecular target: T1, vLDLR CR cluster (8 CRs), recombinant, …; assay: SPR; vLDLR cluster expressed without RAP (RAP-)
LRP1 CR.7 singlet [4] = molecular target: T2, LRP1 CR.7 singlet (human, UniProt Q07954 1013-1053); assay: SPR; CR.7 expressed without RAP (RAP-)
T2 sequence (Q07954 1013-1053): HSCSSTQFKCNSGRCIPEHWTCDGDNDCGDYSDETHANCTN

LRP1 CR.7 singlet [5] = molecular target: T2, LRP1 CR.7 singlet; assay: SPR; CR.7 expressed with RAP (RAP+)

Binder	Kd [1] [nM]	Kd [2] [nM]	Kd [3] [nM]	Kd (LRP1 CR.7 singlet [4]) [nM]	Kd (LRP1 CR.7 singlet [5]) [nM]
B1	~2.5				
B2		~1.6	~1.7	67.9	37.6
